Test results taken from publication PMC10051150, “Structure and Dynamics of Three Escherichia coli NfsB Nitro-Reductase Mutants Selected for Enhanced Activity with the Cancer Prodrug CB1954” (International Journal of Molecular Sciences, 2023).
Residue numbers refer to the chain shown, from its start. Numbers in names are those of the source.

Molecular target: the molecule itself
Test: crystal structure; crystals from 10–18% PEG 4000, 50–200 mM sodium acetate buffer pH 4.6, 15 mM nicotinic acid (where present), 15% ethylene glycol; molecular replacement with PDB 1ICR; two subunits in the asymmetric unit

B1: T41L/N71S NfsB (enzyme, Escherichia coli)
chain: MDIISVALKRHSTKAFDASKKLTPEQAEQIKTLLQYSPSSLNSQPWHFIVASTEEGKARVAKSAAGNYVFSERKMLDASHVVVFCAKTAMDDVWLKLVVDQEDADGRFATPEAKAANDKGRKFFADMHRKDLHDDAEWMAKQVYLNVGNFLLGVAALGLDAVPIEGFDAAILDAEFGLKEKGYTSLVVVPVGHHSVEDFNATLPKSRLPQNITLTEV
notes: Escherichia coli NfsB nitroreductase, 24 kDa subunit, expressed as the native protein; Expressed 'as the native proteins', so no tag is stated; Homodimer with one FMN per active site; also called double mutant; T41L/N71S mutant; source: E. coli BL21 (λDE3), pET11c, purified (Phenyl Sepharose, Q-Sepharose)
- binding result: binds

B2: T41Q/N71S/F124T/M127V NfsB (enzyme, Escherichia coli)
chain: B1 chain with L41Q, F124T, M127V
notes: Escherichia coli NfsB nitroreductase, 24 kDa subunit; also called quadruple mutant; T41Q/N71S/F124T/M127V mutant; source: initially purified from a UT5600 E. coli lysogen, later also recloned into pET11c; purified (Phenyl Sepharose, Q-Sepharose)
- binding result: binds

B3: T41Q/N71S/F124T NfsB (enzyme, Escherichia coli)
chain: B1 chain with L41Q, F124T
notes: Escherichia coli NfsB nitroreductase, 24 kDa subunit, expressed as the native protein; Expressed 'as the native proteins', so no tag is stated; Homodimer with one FMN per active site; also called triple mutant; T41Q/N71S/F124T mutant; source: E. coli BL21 (λDE3), pET11c, purified (Phenyl Sepharose, Q-Sepharose)
- binding result: binds
